Results taken from patent US20060094659A1.
Each block holds one molecule with its values, some of them ahead of it.

Key:
[1] = molecular target: CD44 on the surface of U937-C5aR cells and human neutrophils (human) (UniProt P16070); assay: AlexaFluor 488-labeled DBP binding to U937-C5aR cells pretreated with antibody, fluorescence
[2] = molecular target: CD44 on the surface of U937-C5aR cells and human neutrophils (human) (UniProt P16070); assay: Biacore SPR, U937-C5aR cells pretreated with 25 µg/ml anti-CD44, DBP immobilized
[3] = molecular target: annexin A2 on the surface of U937-C5aR cells and human neutrophils (human) (UniProt P07355); assay: AlexaFluor 488-labeled DBP binding to U937-C5aR cells pretreated with antibody, fluorescence
[4] = molecular target: cell surface DBP binding site complex; assay: Biacore SPR, U937-C5aR cells pretreated with 0.5 µM peptide 2, DBP immobilized (competitor: immobilized DBP)

Chain of annexin A2 on the surface of U937-C5aR cells and human neutrophils (human) (P07355 2-339): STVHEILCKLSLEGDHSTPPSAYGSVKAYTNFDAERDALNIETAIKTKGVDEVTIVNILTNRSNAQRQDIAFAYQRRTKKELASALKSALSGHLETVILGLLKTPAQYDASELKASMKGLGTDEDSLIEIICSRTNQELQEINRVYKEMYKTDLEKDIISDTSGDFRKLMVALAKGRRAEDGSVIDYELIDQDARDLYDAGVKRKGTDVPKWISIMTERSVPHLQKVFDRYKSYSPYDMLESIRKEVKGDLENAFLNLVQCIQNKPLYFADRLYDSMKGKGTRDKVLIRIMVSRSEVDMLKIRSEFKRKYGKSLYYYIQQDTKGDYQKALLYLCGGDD

- percent blocking of DBP binding to cells [1]: 50%
- percent inhibition of cell binding to immobilized DBP [2]: 50%
Molecule: affinity-purified goat polyclonal anti-CD44 (N-18), Santa Cruz Biotechnology (antibody)

- percent blocking of DBP binding to cells [3]: 50%
Molecule: affinity-purified goat polyclonal anti-annexin A2 (C-16), Santa Cruz Biotechnology (antibody)

- percent inhibition of cell binding to immobilized DBP [4]: 50%
Molecule: NYGQAPLSLLVSYTKSYLSMVGS [DBP peptide 2 (residues 150-172)]
